Test results reported in patent publication US20020106775.

System: plasminogen

LMW-uPA-A279 (LMW-uPA with Cys279 to Ala279 replacement)
zymography: the product shown to be active in zymography (data not shown)
